Reference: the RNAGym collection of RNA variant scans (doi:10.1073/pnas.2313332121)
This sample holds only a part of the variants without activity.

B1: TPR 5TU (parent)
chain: GGAUCUUCUCGAUCUAACAAAAAAGACAAAUCUGCCACAAAGCUUGAGAGCAUCUUCGGAUGCAGAGGCGGCAGCCUUCGGUGGCGCGAUAGCGCCAACGUUCUCAACUAUGACACGCAAAACGCGUGCUCCGUUGAAUGGAGUUUAUCAUG

Variants of: B1
Test: polymerase ribozyme fitness, log enrichment relative to wild type (log ratio); higher = more active; in vitro selection for triplet polymerase activity
Method in brief: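 For each subunit of a heterodimeric triplet polymerase ribozyme, a mutant library was built by PCR and transcribed, then taken through a single in vitro selection round in triplicate. Selection involved annealing to a biotinylated primer, the partner subunit and triplets, incubation frozen at −7 °C, gel excision of extended constructs, capture on streptavidin beads and RT-PCR. Genotypes were retained after Illumina sequencing of inputs and outputs only with ≥10 input reads and ≥1 read in each output. Fitness is defined as the logarithm of a genotype's enrichment relative to wild-type enrichment, using inverse-variance-weighted averages across replicates, with the logarithm taken to base 2.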

Point of comparison: GGAUCUUCUCGAUCUAACAAAAAAGACAAAUCUGCCACAUAGCUUGAGAGCAUCUUCGGAUGCAGAGGCGGCAGCCUUCGGUGGCGCGAUAGCGCCAACGUUAUCAACUAUGACACGCAAAACGCGUGCUCCGUUGAAGGGAGUUAAUCAUG [A40U C103A U139G U146A], “polymerase ribozyme fitness (log ratio)” value -2.67. Against it:
- GGAUCUUCUCGAUCUAACAAAAAAGACAAAUCUGCCACAGAGCUUGAGAGCAUCAUCGGAUGCAGAGGCGGCAGCCUUCGGUGGCGCGAUAGCGCCAACGUUCUCAACUAUGACACGCAAAACGCGUGCUCCGUUGAAUGGAGUUUAUCAUG [A40G U55A] — higher, -2
- GGAUCUUCUCGAUCUAACAAAAAAGACAAAUCUGCCACAGAGCUUGAGAGCAUCUACGGAUGCAGAGGCGGCAGCCUUCGGUGACGCGAUCGCGGCAACUUUCUCAACUAUGACACGCAAAACGCGUGCUCCGUUGAAUGGAGUUUAUCAUG [A40G U56A G84A A91C C95G G100U] — lower, ≤ -4.2
- GGAUCUUCUCGAUCUAACAAAAAAGACAAAUCUGCCACAUAGCUUGAGAGCGUCUUCGGAUGCAAAGGCAGCAGCCUUCGGUGGCGCGAUAGCGCCAACGUUCUCAACUAUGACACGCAAAACGCGUUCUCCGUUGAAUGGAGUUUAUCAUG [A40U A52G G65A G70A G128U] — lower, ≤ -4.2
- GGAUCUUCUCGAUCUAACAAAAAAGACAAAUCUGCCACAUAGCUUGAGAGCAUCUUUGGAUGCAGAGCCGGCAGCCUUCGGUGGCGCGAUAGCGCCAACGUUCUCAGUUAUGACACGCAAAACGCGUGCUCCGUUGAAAGGAGUUUAUCAUG [A40U C57U G68C A107G C108U U139A] — lower, ≤ -4.2
- GGAUCUUCUCGAUCUAACAAAAAAGACAAAUCUGCCACAGAGCUUGAGAGCAUCUUCGGAUGCAGAAGCGGCAGCCUUCGGUGGCGCGAUAGCACCAACAUUCUCAUCUAUGACACGCAAAACGCGUGCUCCGUUGAAUGGAGUUUAUCAUG [A40G G67A G94A G100A A107U] — lower, ≤ -4.2
- GGAUCUUCUCGAUCUAACAAAAAAGACAAAUCUGCCACAUAGCUUGAGAGCUUCUUCGGAUGCAGAGGCGGCAGCCUUCGGUGGCGCGAUAGCGCCAACGUUCUCAACUAUGACACGCAAAACGCUUGCUCCGUGGAAUGGGGUUUAUCAUG [A40U A52U G126U U135G A142G] — lower, ≤ -4.2
- GGAUCUUCUCGAUCUAACAAAAAAGACAAAUCUGCCACAGAGCUUGAGAGCAUCUUCGGAUGCAGAGGCGGCAGCCUUCGGUGAGGCGAUAGCGCCAACGUUCUCGACUAUGACACGCAAAACGCGUGCUCCGUUGAAUGGAGUUUAUCAUG [A40G G84A C85G A106G] — lower, ≤ -4.2
- GGAUCUUCUCGAUCUAACAAAAAAGACAAAUCUGCCACAGAGCUUGAGAGCAUCUUCGGAUGCAGAGGCGCCAUCCUUCGGUGGCGCGAUAGUGCCAGCGUUCUCAACUAUGACACGCAAAACGCGUGCUCCGUUGAAUGGAGUUUAUCAUG [A40G G71C G74U C93U A98G] — lower, ≤ -4.2
- GGAUCUUCUCGAUCUAACAAAAAAGACAAAUCUGCCACAUAGCUUGAGAGCAUCUUCGGAUGCAGAGGCGGCAGCCUUCGGUGGCGCGAUAGAGCCAACGUUCUCAACUAUGACACGCAAAACGCGUGCUCCGUUGAAUGGAGUUUAACAUG [A40U C93A U148A] — lower, ≤ -4.2
- GGAUCUUCUCGAUCUAACAAAAAAGACAAAUCUGCCACAGAGCUUGAGAGCAUCUUCGGAUGCAGAGGCGGCAGCCUUCGGUUGCGCGAUAACGCCAAGGUUCUCAUCUAUGACACGCAAAACGCGUGCUCCGUUGAAUGGAGUUUAUCAUG [A40G G83U G92A C99G A107U] — lower, ≤ -4.2
- GGAUCUUCUCGAUCUAACAAAAAAGACAAAUCUGCCACAGAGCUUGAGAGCAUCUACGGAUGCAGAGGCGGCAGCCUUCGGUGGCACGAUAGCGCCAACGUUCUCAACUAUGACACGCAAAACGCGUGCUCCGUUGAAUGGAGUUUAUCAUG [A40G U56A G86A] — lower, -3.13
- GGAUCUUCUCGAUCUAACAAAAAAGACAAAUCUGCCACAGAGCUUGAGAGCAUCUUCGAAUGCAGAGGCGGCAGCCUACGGUGGCGCGAUAGCACCAACGUUCUCAAUUAUGACACGCAAAACGCGUGCUCCGUUGAAUGGAGUUUAUCAUG [A40G G59A U78A G94A C108U] — lower, ≤ -4.2
- GGAUCUUCUCGAUCUAACAAAAAAGACAAAUCUGCCACAGAGCUUGAGAGCAAUUUCGGAUGCAGAGGCGGCAGCCUUCGGGGGCGAGGUAGCGCCAACGUUCUCAACUAUGACACGCAAAACGCGUGCUCCGUUGUUUGGAGUAUAUCAUG [A40G U53A C54U U82G C87A A89G A137U A138U U145A] — lower, ≤ -4.2
- GGAUCUUCUCGAUCUAACAAAAAAGACAAAUCUGCCACAUAGCUUGAGAGCAUCUUCGGAUGCAGAGGCGGCAGCCUUCGGUGGCGCGAUGGCGCCAACGUUCUCAACUAUGACAUGCAAUACGCGUGCUCCGUUGAAUGGAGUUUAUCAUG [A40U A91G C116U A121U] — within 0.2 log units, -2.66
- GGAUCUUCUCGAUCUAACAAAAAAGACAAAUCUGCCACAUAGCUUGAGAGCAUUUUCGGAUGCAGAGGCCGCAGCCUUCGGUGGCGCGAUAGCGCCAACGUUCUCAACUAUGACACUCAAAACGCGUCCUCCGUUGGAUGGAGUUUAUCAUG [A40U C54U G70C G117U G128C A137G] — lower, ≤ -4.2
- GGAUCUUCUCGAUCUAACAAAAAAGACAAAUCUGCCACAGAGCUUGAGAGCAUCUUCGGAUGCAGAGGCGGCAGCCUUCGGUGUCGCGUUAGCGCCAACGUUCGCAACUAUGACACGCAAAACGCGUGCUCCGUUGAAUGGAGUUUAUCAUG [A40G G84U A89U U104G] — lower, ≤ -4.2
- GGAUCUUCUCGAUCUAACAAAAAAGACAAAUCUGCCACAUAGCUUGAGAGCAUCUUCGGAUGCAGAGGCGGCAGCCUUCGGUGGCGCGAUAGUGCCAACGUUCUCAACUAUGACACGCAAAACGCGUGCUCCGUUGAAUGGAGUUUAUCAUG [A40U C93U] — higher, -0.794
- GGAUCUUCUCGAUCUAACAAAAAAGACAAAUCUGCCACAUAGCUUGAGAGCAUCUUCGGUUGCAGAGGCCGCAGCUUUCGGUGGCGCGAUAGCGCAAACGUUCUCAACUAUGACACGCAAAACGCGUGCUCCGUUGAAUGGAGUUUAUCAUG [A40U A60U G70C C76U C96A] — lower, ≤ -4.2
